{"source": "patent US20230184768A1", "about": "(MESO SCALE TECHNOLOGIES, published 2023)", "binders": {"B1": {"name": "HCoV-HKU1 S protein (other)", "chain": "AVIGDFNCTNFAINDLNTTVPRISEYVVDVSYGLGTYYILDRVYLNTTILFTGYFPKSGANFRDLSLKGTTYLSTLWYQKPFLSDFNNGIFSRVKNTKLYVNKTLYSEFSTIVIGSVFINNSYTIVVQPHNGVLEITACQYTMCEYPHTICKSKGSSRNESWHFDKSEPLCLFKKNFTYNVSTDWLYFHFYQERGTFYAYYADSGMPTTFLFSLYLGTLLSHYYVLPLTCNAISSNTDNETLQYWVTPLSKRQYLLKFDNRGVITNAVDCSSSFFSEIQCKTKSLLPNTGVYDLSGFTVKPVATVHRRIPDLPDCDIDKWLNNFNVPSPLNWERKIFSNCNFNLSTLLRLVHTDSFSCNNFDESKIYGSCFKSIVLDKFAIPNSRRSDLQLGSSGFLQSSNYKIDTTSSSCQLYYSLPAINVTINNYNPSSWNRRYGFNNFNLSSHSVVYSRYCFSVNNTFCPCAKPSFASSCKSHKPPSASCPIGTNYRSCESTTVLDHTDWCRCSCLPDPITAYDPRSCSQKKSLVGVGEHCAGFGVDEEKCGVLDGSYNVSCLCSTDAFLGWSYDTCVSNNRCNIFSNFILNGINSGTTCSNDLLQPNTEVFTDVCVDYDLYGITGQGIFKEVSAVYYNSWQNLLYDSNGNIIGFKDFVTNKTYNIFPCYAGRVSAAFHQNASSLALLYRNLKCSYVLNNISLTTQPYFDSYLGCVFNADNLTDYSVSSCALRMGSGFCVDYNSPSSSSSRRKRRSISASYRFVTFEPFNVSFVNDSIESVGGLYEIKIPTNFTIVGQEEFIQTNSPKVTIDCSLFVCSNYAACHDLLSEYGTFCDNINSILDEVNGLLDTTQLHVADTLMQGVTLSSNLNTNLHFDVDNINFKSLVGCLGPHCGSSSRSFFEDLLFDKVKLSDVGFVEAYNNCTGGSEIRDLLCVQSFNGIKVLPPILSESQISGYTTAATVAAMFPPWSAAAGIPFSLNVQYRINGLGVTMDVLNKNQKLIATAFNNALLSIQNGFSATNSALAKIQSVVNSNAQALNSLLQQLFNKFGAISSSLQEILSRLDALEAQVQIDRLINGRLTALNAYVSQQLSDISLVKFGAALAMEKVNECVKSQSPRINFCGNGNHILSLVQNAPYGLLFMHFSYKPISFKTVLVSPGLCISGDVGIAPKQGYFIKHNDHWMFTGSSYYYPEPISDKNVVFMNTCSVNFTKAPLVYLNHSVPKLSDFESELSHWFKNQTSIAPNLTLNLHTINATFLDLYYEMNLIQES", "notes": "also called HCoV-HKU1 spike protein"}}, "target": "T1, labeled ACE2 (angiotensin-converting enzyme 2) (human, UniProt Q9BYF1 18-740)", "T1 construct": "also called ACE2 detection reagent", "T1 sequence (Q9BYF1 18-740 limits assumed)": "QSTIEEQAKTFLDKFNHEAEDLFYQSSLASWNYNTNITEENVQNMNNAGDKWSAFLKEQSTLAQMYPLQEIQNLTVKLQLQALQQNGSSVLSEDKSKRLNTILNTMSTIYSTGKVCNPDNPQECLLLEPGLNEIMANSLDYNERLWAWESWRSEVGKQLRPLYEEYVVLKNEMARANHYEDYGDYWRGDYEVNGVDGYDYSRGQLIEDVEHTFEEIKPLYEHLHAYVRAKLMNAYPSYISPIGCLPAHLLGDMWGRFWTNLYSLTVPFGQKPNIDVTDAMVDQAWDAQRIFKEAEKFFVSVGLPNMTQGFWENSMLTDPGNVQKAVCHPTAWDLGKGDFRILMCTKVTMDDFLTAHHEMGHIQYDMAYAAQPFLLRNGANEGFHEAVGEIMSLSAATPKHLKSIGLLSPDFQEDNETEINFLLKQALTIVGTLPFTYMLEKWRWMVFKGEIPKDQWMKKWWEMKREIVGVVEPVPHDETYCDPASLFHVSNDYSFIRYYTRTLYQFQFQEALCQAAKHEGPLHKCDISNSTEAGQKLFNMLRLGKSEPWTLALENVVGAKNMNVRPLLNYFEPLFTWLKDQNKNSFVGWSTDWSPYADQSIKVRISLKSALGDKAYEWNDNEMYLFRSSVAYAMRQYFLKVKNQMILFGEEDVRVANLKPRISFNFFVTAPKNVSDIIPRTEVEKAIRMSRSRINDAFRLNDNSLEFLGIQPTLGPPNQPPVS", "experiment": "labeled ACE2 on immobilized Mixed Panel, ECL", "data": [{"binder": "B1", "values": [{"measurement": "binding result", "result": "no binding"}]}]}
